From patent US9951373B2, “Oplophorus-derived luciferases, novel coelenterazine substrates, and methods of use” (Promega Corporation, priority 2010, dated 2018)

Tests used:
[1] = Luminescence of 9B8 opt+K33N derived variants in E. coli; format: biochemical
Protocol: Luminescence generated from the lysates was measured using the novel PBI-3939 and native coelenterazine as substrates. The relative specificity of the variants for PBI-3939 and native coelenterazine was calculated as described previously.
A new OgLuc library was created using 9B8opt+K33N as a starting template. The random library was created using DIVERSIFY® PCR Random Mutagenesis Kit (ClonTech; Catalog #630703). Condition 5 (as listed in the user manual) was used to generate additional variants, and the average mutation rate was calculated to be 2.6 mutations per gene by compiling sequence data from 83 randomly selected clones. This PCR library was cloned into the pF4Ag-based, non-fusion vector background described previously and the sandwich background, i.e., Id-OgLuc-HT7 (described in Example 45). Variants in the pF4Ag-base non-fusion vector background are designated with (NF). Variants in the sandwich vector background are designated with (F). In order to clone the PCR product into both vectors, an amino acid, i.e., a glycine, was appended to the variant sequence in pF4Ag, generating a new position 170 in the OgLuc variant (“170G”). The 170G is present in the sandwich construct, but in this case is considered part of the linker between OgLuc and HT7. For each library, 4,400 E. coli clones were assayed as described previously with the following exceptions. […] The assay buffer contained 100 mM MES pH 6.0 instead of HEPES, and 35 mM thiourea. The assay volumes were as follows: 10 μL cells, 40 μL, lysis buffer, and 50 μL, assay buffer.
E. coli lysates containing the variants were prepared and analyzed as described previously. Luminescence generated from the lysates was measured using the novel PBI-3939 and native coelenterazine as substrates. The luminescence of the variants was normalized to the luminescence generated by 9B8 opt (Table 12). The relative specificity of the variants for PBI-3939 and native coelenterazine was calculated by dividing the luminescence of the variants using PBI-3939 as a substrate with the luminescence of the variants using native coelenterazine as a substrate (Table 12).

[2] = test system: NIH3T3 cells; assay: Luminescence in sandwich background, NIH3T3 cells; format: cell-based
Protocol: (§1) The PCR library in the Id-OgLuc-HT7 sandwich background was screened for additional variants with increased luminescence compared to 9B8 opt+K33N in sandwich background. Selected variants were then assayed in HEK293 and NIH3T3 cells. […] 1F7 (F) (SEQ ID NOs: 84 and 85) and 15H1 (F) (SEQ ID NOs: 86 and 87) had at least 1.3 fold-increase in luminescence in E. coli. 1F7 (F) was brighter than 9B8 opt+K33N in the sandwich background in HEK293 and NIH3T3 cells.
(§2) The variants 9B8 opt+K33N+T39T+K43R+Y68D (“V2”; SEQ ID NOs: 92 and 93), 9B8 opt+K33N+L27V+K43R+Y68D (SEQ ID NOs: 339 and 340), 9B8 opt+K33N+L27V+T39T+K43R+S66N (SEQ ID NOs: 341 and 342), and 9B8 opt+K33N+L27V+T39T+K43R+Y68D (“L27V”; SEQ ID NOs: 88 and 89) were subcloned into the Id-OgLuc-HT7 sandwich background as described above and assayed in HEK293 and NIH3T3 cells as described above. The luminescence generated by the sandwiched variants were compared to the luminescence generated by the […] sandwich (SEQ ID NOs: 59 and 60) (Table 38). The L27V sandwich (SEQ ID NOs: 90 and 91) and V2 sandwich (SEQ ID NOs: 94 and 95) had at least 1.3× fold-increase in luminescence in HEK293 and NIH3T3 cells.
(§3) The sandwich and non-sandwich versions of the variants V2, 9B8 opt+K33N+L27V+K43R+Y68D, 9B8 opt+K33N+L27V+T39T+K43R+S66N, and L27V were assayed in HEK293 and NIH3T3 cells as described in Example 37. The luminescence generated by the non-sandwiched variants was compared to the luminescence generated by the sandwiched variants (Table 39).

[3] = test system: HEK293 cells; assay: Luminescence in sandwich background, HEK293 cells; format: cell-based, human
Protocol: as §1, §2, §3

[4] = Thermal stability of OgLuc variants at 60° C.; format: physicochemical; conditions: 60° C., assay buffer MES pH 6.0
Protocol: Aliquots were removed at different time-points and placed on dry ice to freeze the samples. […] Luminescence was measured on a GLOMAX® luminometer (Promega Corp.).
The thermal stability of the variants at 60° C. was examined as described above, except the assay buffer contained 100 mM MES pH 6.0 instead of HEPES.

[5] = test system: NIH3T3 cells; assay: Luminescence of OgLuc variants expressed in NIH3T3 cells; format: cell-based
Protocol: (§4) The PCR library in the pF4Ag-based non-fusion background was screened for additional variants with increased luminescence compared to 9B8 opt+K33N+170G (SEQ ID NOs: 68 and 69). Selected variants were then assayed in HEK293 and NIH3T3 cells. For each cell type, 15,000 cells were plated and grown overnight at 37° C. The next day, the cells were transfected as described in Example 25 with 10 ng pGL4.13 (Promega Corp.) as a transfection control and 100 ng of the OgLuc test DNA. The media was removed, and the cells were lysed with 100 μL of lysis buffer as described in Example 25 except the lysis buffer contained 100 mM MES pH 6.0 instead of HEPES, and luminescence measured using a GLOMAX® Luminometer.
(§5) Based on the above data, further combination variants were designed and generated (see Table 10) in the context of the pF4Ag-based non-fusion vector background without the 170G. The variants were analyzed in E. coli, HEK293 and NIH3T3 cells as described above and compared to 9B8 opt+K33N. The variants were also examined for luminescence with native coelenterazine.
(§6) The brightness of the variants expressed in HEK293 and NIH3T3 cells was measured as described previously. The luminescence of the variants was normalized to the luminescence generated by 9B8 opt (Table 27).

[6] = test system: HEK293 cells; assay: Luminescence of OgLuc variants expressed in HEK293 cells; format: cell-based, human
Protocol: as §4, §5, §6

[7] = Enzyme kinetics of OgLuc variants in E. coli lysates; format: biochemical; conditions: PBI-3939, E. coli lysates
Protocol: Using methods known in the art, enzyme kinetic assays measuring luminescence were performed with the lysates of E. coli containing IV and the IV variants 15C1, 9B8, 9F6, and 9A3. […] Two fold serial dilutions of PBI-3939 in the assay buffer described previously in Example 26 were assayed with the diluted lysates. […] Variants 9B8 and 9F6 had higher Km values compared to IV while Km values for the other variants were unchanged.
Luminescence was measured on a TECAN® INFINITE® F500 luminometer.
The enzyme kinetics values were determined for the OgLuc variants as described previously, except luminescence was measured using a GLOMAX® luminometer. Three replicates were used for each variant.

[8] = relative specificity for PBI-3939 compared to native coelenterazine

| Molecule | fold-increase in relative specificity over 9B8 opt+K33N ([1]; in the three cell types examined) [× fold] | Fold over coelenterazine ([1]; luminescence with PBI-3939 divided by luminescence with native coelenterazine, bacterial lysates) | Fold over 9B8 ([1]; luminescence with PBI-3939 normalized to 9B8 opt, bacterial lysates) | Fold over Native Coelenterazine, E. coli [1, 8] | Fold-decrease in luminescence in the presence of sandwich background, NIH 3T3 cells ([2]; non-sandwich versus sandwich) | Fold-decrease in luminescence in the presence of sandwich background, HEK 293 ([3]; non-sandwich versus sandwich) | 1/2 life hours [4] [h] | luminescence normalized to 9B8 opt, NIH3T3 ([5]; PBI-3939) | Fold over 9B8 opt + K33N, NIH3T3 ([5]; luminescence, PBI-3939) | Fold over Native Coelenterazine, NIH3T3 [5, 8] | luminescence normalized to 9B8 opt, HEK293 ([6]; PBI-3939) | Fold over 9B8 opt + K33N, HEK293 ([6]; luminescence, PBI-3939) | Fold over Native Coelenterazine, HEK293 [6, 8] | Km [7] [µM] | Vmax [7] | Fold over 9B8 opt + K33N sandwich, NIH3T3 ([2]; sandwich background) | Fold over 9B8 opt + K33N sandwich, HEK293 ([3]; sandwich background) |
| --- | --- | --- | --- | --- | --- | --- | --- | --- | --- | --- | --- | --- | --- | --- | --- | --- | --- |
| L27V, K43R, Y68D: 9B8 opt+K33N with L27V, K43R, Y68D (SEQ ID NO: 340) (protein) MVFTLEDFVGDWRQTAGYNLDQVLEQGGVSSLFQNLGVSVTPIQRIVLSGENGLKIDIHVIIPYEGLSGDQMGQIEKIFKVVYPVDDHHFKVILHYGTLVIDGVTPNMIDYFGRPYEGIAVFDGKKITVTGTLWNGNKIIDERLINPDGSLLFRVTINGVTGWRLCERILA | 5 | 110 | 1.3 | 98.3 | 22 | 8 | 23.2 | 1.5 | 0.8 | 98 | 1.6 | 0.9 | 101 | 13.7 | 130,000,000 RLU/0.5 sec |  |  |
| L27V, T39T, K43R, Y68D Sand: L27V in Id-OgLuc-HT7 sandwich (SEQ ID NO: 91) (protein) MLGLSEQSVSISRCAGTRLPALLDEQQVNVLLYDMNGCYSRLKELVPTLPQNRKVSKVEILQHVIDYIRDLQLELNSESEVGTTGGRGLPVRAPLSTLNGEISALAAEAACVPADDRILCRVSLENLYFQASGGGGGAIAMVFTLEDFVGDWRQTAGYNLDQVLEQGGVSSLFQNLGVSVTPIQRIVLSGENGLKIDIHVIIPYEGLSGDQMGQIEKIFKVVYPVDDHHFKVILHYGTLVIDGVTPNMIDYFGRPYEGIAVFDGKKITVTGTLWNGNKIIDERLINPDGSLLFRVTINGVTGWRLCERILAGYLEPTTEDLYFQSDNDGSEIGTGFPFDPHYVEVLGERMHYVDVGPRDGTPVLFLHGNPTSSYVWRNIIPHVAPTHRCIAPDLIGMGKSDKPDLGYFFDDHVRFMDAFIEALGLEEVVLVIHDWGSALGFHWAKRNPERVKGIAFMEFIRPIPTWDEWPEFARETFQAFRTTDVGRKLIIDQNVFIEGTLPMGVVRPLTEVEMDHYREPFLNPVDREPLWRFPNELPIAGEPANIVALVEEYMDWLHQSPVPKLLFWGTPGVLIPPAEAARLAKSLPNCKAVDIGPGLNLLQEDNPDLIGSEIARWLSTLEISG |  |  |  |  |  |  |  |  |  |  |  |  |  |  |  | 1.4 | 1.7 |
